The results in this text go back to publication PMC4134374.

Experiment [1] has as its target TMR-labelled wt H4-tail peptide. Kind of experiment: fluorescence polarisation.
Experiment [2] addresses TMR-labelled 2RA H4-tail peptide. Kind of experiment: fluorescence polarisation. Background: Polarisation of emitted light reports the rotation of a fluorescent probe.

Take “wt Acf1 (accessory subunit of human ACF), isolated (from UniProt Q9NRL2 1-1556) (natural protein)”: the dissociation constant Kd in experiment [1] came out at 3 nM; in experiment [2] it was 41 nM.
Turning to “ΔC-term Acf1 (residues 1423-1556 deleted) (from UniProt Q9NRL2 1-1422) (domain or fragment)”, the Kd in experiment [1] stood at 2 nM.

A word on the Kd: it is the constant that tells how readily two partners part at equilibrium.
